For test [1], the target named is VEGF (human) (UniProt P15692).
Test [2] addresses VEGF (human) (UniProt P15692). The source holds these as a separate data set.
The target in test [3] is human Tie2 (human) (UniProt Q02763).
The target is the same in test [4]. This is another data set of the same source.
Test [5] shares this target. This is another data set of the same source.
Test [6] has the same target. The source holds these as a separate data set.
Test [7] shares this target. This is another data set of the same source.
The target of test [8] is VEGF (human) (UniProt P15692). The source holds these as a separate data set.

Like-named read-outs stand apart in the source and are kept apart here.

VEGF (human), sequence (P15692 other isoform, or with tags, fused parts or gaps limits assumed): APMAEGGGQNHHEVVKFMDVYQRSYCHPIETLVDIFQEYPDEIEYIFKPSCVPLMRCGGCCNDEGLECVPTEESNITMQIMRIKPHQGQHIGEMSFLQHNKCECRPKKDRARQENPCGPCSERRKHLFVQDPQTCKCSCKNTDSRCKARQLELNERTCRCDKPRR
Ang1, sequence (Q15389 20-498 limits assumed): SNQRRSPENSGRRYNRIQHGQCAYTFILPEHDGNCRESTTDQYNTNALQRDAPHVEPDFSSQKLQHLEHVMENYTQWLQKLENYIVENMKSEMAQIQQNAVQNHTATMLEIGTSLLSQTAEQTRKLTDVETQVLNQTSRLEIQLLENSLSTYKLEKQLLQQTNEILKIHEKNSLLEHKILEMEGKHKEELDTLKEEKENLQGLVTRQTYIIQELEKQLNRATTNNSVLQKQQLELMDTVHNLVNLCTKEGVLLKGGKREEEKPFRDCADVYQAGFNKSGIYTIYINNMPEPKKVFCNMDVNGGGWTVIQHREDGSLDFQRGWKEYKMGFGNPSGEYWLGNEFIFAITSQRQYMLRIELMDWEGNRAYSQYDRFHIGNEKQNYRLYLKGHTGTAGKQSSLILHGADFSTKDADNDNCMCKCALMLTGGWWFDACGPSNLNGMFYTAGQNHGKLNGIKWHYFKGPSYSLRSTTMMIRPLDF
human Tie2 (human), sequence (Q02763 23-1124): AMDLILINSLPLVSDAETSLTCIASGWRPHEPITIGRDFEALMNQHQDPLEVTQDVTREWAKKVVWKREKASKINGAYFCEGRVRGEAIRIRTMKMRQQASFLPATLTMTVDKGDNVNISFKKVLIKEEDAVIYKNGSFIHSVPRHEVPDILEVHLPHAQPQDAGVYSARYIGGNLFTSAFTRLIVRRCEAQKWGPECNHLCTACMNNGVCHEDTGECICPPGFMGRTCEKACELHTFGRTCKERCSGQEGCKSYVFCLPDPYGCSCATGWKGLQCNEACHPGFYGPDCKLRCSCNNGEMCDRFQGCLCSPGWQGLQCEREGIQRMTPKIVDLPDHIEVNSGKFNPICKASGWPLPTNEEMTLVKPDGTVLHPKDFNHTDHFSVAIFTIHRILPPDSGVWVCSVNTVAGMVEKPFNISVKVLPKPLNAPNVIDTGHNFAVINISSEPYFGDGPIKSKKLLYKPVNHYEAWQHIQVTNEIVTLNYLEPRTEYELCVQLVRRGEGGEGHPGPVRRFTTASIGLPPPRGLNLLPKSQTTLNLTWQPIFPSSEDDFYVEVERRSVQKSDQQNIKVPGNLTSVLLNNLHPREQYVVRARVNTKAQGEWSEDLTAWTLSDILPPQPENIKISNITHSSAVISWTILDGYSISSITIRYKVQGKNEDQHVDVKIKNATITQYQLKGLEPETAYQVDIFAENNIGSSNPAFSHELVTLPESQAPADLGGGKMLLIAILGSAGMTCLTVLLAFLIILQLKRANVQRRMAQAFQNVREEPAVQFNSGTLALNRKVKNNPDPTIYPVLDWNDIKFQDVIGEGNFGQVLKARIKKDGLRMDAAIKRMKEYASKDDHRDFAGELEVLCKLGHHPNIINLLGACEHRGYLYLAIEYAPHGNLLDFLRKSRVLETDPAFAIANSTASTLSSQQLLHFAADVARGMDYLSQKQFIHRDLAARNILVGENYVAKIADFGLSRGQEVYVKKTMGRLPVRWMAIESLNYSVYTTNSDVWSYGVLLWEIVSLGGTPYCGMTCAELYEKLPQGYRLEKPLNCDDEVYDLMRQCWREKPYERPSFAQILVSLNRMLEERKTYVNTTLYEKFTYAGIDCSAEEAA
Aflibercept-LALA-PG (Fc fusion), sequence (chain): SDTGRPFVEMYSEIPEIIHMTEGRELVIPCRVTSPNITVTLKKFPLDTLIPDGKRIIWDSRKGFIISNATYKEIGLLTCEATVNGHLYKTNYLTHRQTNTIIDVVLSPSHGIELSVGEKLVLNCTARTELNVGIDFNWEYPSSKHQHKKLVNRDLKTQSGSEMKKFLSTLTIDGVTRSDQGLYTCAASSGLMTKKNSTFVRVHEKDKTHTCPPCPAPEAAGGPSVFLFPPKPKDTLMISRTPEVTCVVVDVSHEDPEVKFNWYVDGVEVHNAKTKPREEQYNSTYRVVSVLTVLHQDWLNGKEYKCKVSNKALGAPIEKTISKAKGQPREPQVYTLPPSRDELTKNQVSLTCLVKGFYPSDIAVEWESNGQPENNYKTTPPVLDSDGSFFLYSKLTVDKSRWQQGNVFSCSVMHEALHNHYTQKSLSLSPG
Aflibercept (Fc fusion), sequence (chain): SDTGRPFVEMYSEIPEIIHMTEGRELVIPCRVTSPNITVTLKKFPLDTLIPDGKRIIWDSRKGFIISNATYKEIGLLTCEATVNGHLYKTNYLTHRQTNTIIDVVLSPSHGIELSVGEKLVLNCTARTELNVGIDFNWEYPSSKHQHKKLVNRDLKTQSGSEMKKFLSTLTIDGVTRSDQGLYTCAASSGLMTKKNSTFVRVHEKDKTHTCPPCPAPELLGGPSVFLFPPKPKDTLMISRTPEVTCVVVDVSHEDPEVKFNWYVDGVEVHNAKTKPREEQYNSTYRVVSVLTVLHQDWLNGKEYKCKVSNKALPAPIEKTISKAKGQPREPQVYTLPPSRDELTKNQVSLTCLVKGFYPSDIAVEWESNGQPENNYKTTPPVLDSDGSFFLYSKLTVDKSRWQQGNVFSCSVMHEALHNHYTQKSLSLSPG

Aflibercept-LALA-PG (Fc fusion) displayed an EC50, VEGF neutralisation, KDR/NFAT-RE HEK293 luciferase reporter with VEGF (human) [1] of 0.56 nM. Further, in the test with VEGF (human) [2], the IC50 (read off the curve); % VEGF activity, KDR/NFAT-RE HEK293 luciferase reporter [Panel A] was determined as 0.6 nM.

With “Ang1 (from UniProt Q15389 20-498) (ligand)”, the EC50, pAkt in HUVEC (MSD ELISA) [Panel B] with human Tie2 (human) [3] was 4.1 nM. In the test with human Tie2 (human) [4], this substance showed an EC50, pTie2 in HUVEC, W/ VEGF (20 nM VEGF-165 per paragraph 153) [Panel E] of 2.4 nM and an EC50, pTie2 in HUVEC, W/O VEGF [Panel E] of 1.61 nM. Moreover, the EC50, pTie2 in HUVEC (in vitro potency) with human Tie2 (human) [5] turned out to be 4.58 nM. In the test with human Tie2 (human) [6], this substance showed an EC50, pAkt in HUVEC (MSD ELISA) [Panel B] of 1.71 nM. Besides, in the test with human Tie2 (human) [7], the EC50, pTIE2 in HUVEC [Panel C] was 1.77 nM.

In the test with VEGF (human) [8], Aflibercept (Fc fusion) showed an EC50, VEGF inhibition, KDR/NFAT-RE HEK293 luciferase reporter [Panel C] of 0.28 nM.

The values are drawn from patent US20250250343A1.
